Reference: patent publication US20230060040A1, “USE OF TRANSFERRIN, TRANSFERRIN RECEPTOR AND ANTIBODY THEREOF IN PREPARATION OF ANTI-SARS-CoV-2 DRUG” (KUNMING INSTITUTE OF ZOOLOGY, CHINESE ACADEMY OF SCIENCES, priority 2020, published 2023)

Biological target: transferrin receptor on the membrane surface of Vero E6 cells (African green monkey)
Assay: cell-based or functional assay

## transferrin (Sigma, catalog number T4382) (from UniProt P02787 20-698) (ligand)
  EC50 of inhibition of SARS-CoV-2 infection of Vero E6 cells, calculated by CPE: 0.125 µM
